Here are results for one molecule from article PMC12570964 (Nature Microbiology, 2025).

For this assay, the target named is T1, mouse IFIT3 (M. musculus Ifit3, co-expressed with Ifit2 in E. coli) (M. musculus, UniProt Q64345 8-389).
T1 construct: also called interferon-induced protein with tetratricopeptide repeats 3
T1 sequence: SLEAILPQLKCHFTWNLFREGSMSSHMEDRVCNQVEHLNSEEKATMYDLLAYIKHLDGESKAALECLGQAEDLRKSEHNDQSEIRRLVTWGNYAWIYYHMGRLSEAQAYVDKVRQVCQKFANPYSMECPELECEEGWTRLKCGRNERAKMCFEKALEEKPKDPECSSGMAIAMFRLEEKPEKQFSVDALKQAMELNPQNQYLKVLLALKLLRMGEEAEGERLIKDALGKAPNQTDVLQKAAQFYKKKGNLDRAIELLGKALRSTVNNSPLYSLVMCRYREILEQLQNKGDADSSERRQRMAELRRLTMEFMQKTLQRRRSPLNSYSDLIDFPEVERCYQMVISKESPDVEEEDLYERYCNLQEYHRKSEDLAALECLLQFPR
Kind of assay: cryo-EM structure. As to conditions: both partners purified.

B1: mouse IFIT2 (M. musculus Ifit2, co-expressed with Ifit3 in E. coli) (natural protein, UniProt Q64112 1-472, looked up)
chain: MSTTSKESLVCNLRQLKCHFTWNLIAEDESLDEFEDRVFNKDEFQNSEFKATMCNILAYVKHCRGLNEAALQCLGEAEGFIQQQHPDQVEIRSLVTWGNYAWVYYHMGQFSKAQAYLDKVKQVCKKFSSPYRIENPALDCEEGWARLKCTKNQNERVKVCFQKALEKDPKNPEFTSGWAIAFYRLDDWPARNYCIDSLEQAIQLSPDNTYVKVLLALKLDAVHVHKNQAMALVEEALKKDPSAIDTLLRAARFYCKVYDTDRAIQLLRKALEKLPNNAYVHYYMGCCYRSKVHHMLNRREMVFSGDRKKLEELIQLAVNHLRKAEEIKEMLEYSCSFLADLYIIAKKYDEADYYFQKELSKDLPPGPKQLLHLRYGNFQFFQMKRQDKAIYHYMEGVKIKKKTIPQKKMREKLQRIALRRLHEDESDSEALHILAFLQENGGGQQADKDSERGVDSANQVPSASLDEDGAEY
notes: also called interferon-induced protein with tetratricopeptide repeats 2; source: E. coli Rosetta pLysS, co-expressed with Ifit3, purified (nickel column, TEV cleavage, Superdex 200 size exclusion)
Usually stoichiometry N stands for a count of units in the complex or per binding partner. In the case of B1, the “stoichiometry N” value came to 1.
